According to the DeepSol protein solubility set:

Experiment: soluble on expression in E. coli; label from the status in PepcDB or PDB records

Sequence	soluble on expression in E. coli
MKKKIESYQGAAGGWGAVKSVANAVRKQMDIRQDVIAMFDMNKPEGFDCPGCAWPDPKHSASFDICENGAKAIAWEVTDKQVNASFFAENTVQSLLTWGDHELEAAGRLTQPLKYDAVSDCYKPLSWQQAFDEIGARLQSYSDPNQVEFYTSGRTSNEAAFLYQLFAREYGSNNFPDCSNMCHEPTSVGLAASIGVGKGTVLLEDFEKCDLVICIGHNPGTNHPRMLTSLRALVKRGAKMIAINPLQERGLERFTAPQNPFEMLTNSETQLASAYYNVRIGGDMALLKGMMRLLIERDDAASAAGRPSLLDDEFIQTHTVGFDELRRDVLNSEWKDIERISGLSQTQIAELADAYAAAERTIICYGMGITQHEHGTQNVQQLVNLLLMKGNIGKPGAGICPLRGHSNVQGDRTVGITEKPSAEFLARLGERYGFTPPHAPGHAAIASMQAICTGQARALICMGGNFALAMPDREASAVPLTQLDLAVHVATKLNRSHLLTARHSYILPVLGRSEIDMQKNGAQAVTVEDSMSMIHASRGVLKPAGVMLKSECAVVAGIAQAALPQSVVAWEYLVEDYDRIRNDIEAVLPEFADYNQRIRHPGGFHLINAAAERRWMTPSGKANFITSKGLLEDPSSAFNSKLVMATVRSHDQYNTTIYGMDDRYRGVFGQRDVVFMSAKQAKICRVKNGERVNLIALTPDGKRSSRRMDRLKVVIYPMADRSLVTYFPESNHMLTLDNHDPLSGIPGYKSIPVELEPSN	not soluble
MSRGFALLGWLNPAQRQAVTAPCGHLCINAAAGTGKTTTVAARILWLQLVQDVPPEAILAVTFSRAARAHLLDRVEAFTRVLGAGGAVPTFTLHGLAYRILRIAIGAGETWLRPGFGVISVGRDRINPLLQEHAADLLGDLSDPWDLPTRVEQYSRALDAVRQGCADIEEGLPLEPDDLPDGVLYVPARIETPNLRKVWRRYNRMLRARNYLDYPGMVTEAILALYREGKTLQRARANLEYIIVDEYQDTSRAQEELIQLLVGERTSVTVVGDSDQAIYTFNGADIGNILHFAERILETGSALPVLEPVHLVENYRSSACILDAANRVLDRIHGPGRKQLVPYPGTVDEPVESYRRRNLEVVRVHAGSLDQAAFWAASEIARLVTEEGIEPSDIAVLVRKDTEHAPQGRAVRLALERLGIRAEEQERDPIRSSHVYEVVRDLCGDPDYYGEDIGDMIERIAAGEFRDALGDVTPDEATALLREAQAAGAEFAGEVVDFVFEQGAPDATPASLEGVQVRTIHSAKGLEFRVVFLMYLSDREFPHGAHPDVAEERRLYYVGLTRAQERLYVLGQPGVRNEDFFGAIDGSGVVTVHVEPWRDRSPSSEEAVDDETLRLIQEARRRQHDMFLRRP	soluble
MKIGILTQPLSNNYGGILQALALQTVLRSMGHETVILSREYDYPPFRLCLMRILSVLKCIVRKYILRDNRAIIANPFLHFYATDKTQVYDDNEIQAFIRKNLKCSVRLQSTWILKIYVRLHHFDAFLVGSDQVWRESFSPCITNFFLDFLSQKCRAKRIAYGASFGVEQNPISVASLNQCVELAKRFDAISVREQSGVKIMKETFHLSACQVLDPTLLLPVDFYRSFMQKSDMDSSGLVSYLLDGNEEKRNIIAVAREQLQLSQTELLLFPSRYKDEVPRFSSVSSWLSAFANADFVVTDSFHGCVFSIIFRKPFVVISNSGRGNERFFSLLDTFGLNDRLVFSYEEFVDKEEILLIEQDYTEVERKYENLKVKSLEFLFQALNEN	not soluble
MGSDKIHHHHHHMHTQVNELFSELWQNYVSVTPSAAKIHALLGSSQQDDVQNDHIALRTFNIEKINLDKLAAHFLALGYKENGEYHFEAKKLYAKHYEHPDPTQPKVFISELLLEKCSPELQAIVHKLVDQIDVAAVTADNFLYSGRHWSIDQATYNTLVKESEYAAWVSVWGFRANHFTVSVNALKNFETLVSVNDTLKAAGFALNTSGGEIKGSQEVMLKQSSTLADEALVEFTDGSKMVPSCFYEFARRFPMADGTLYPGFVAASADKIFESTNAR	not soluble
METCDLLAFGAHPDDVEIGMGGTIAKYVRRGYRIVICDLTQAELSSNGTVDERQREAAEAARRLGVSERFNLGLPDRGLYVEEEAIRQIAAVIRRCRPRLVFAPYWEDRHPDHGRCARLVEEAVFSAGIRRYGAGELGDAHRVRAVYYYMINAFCRPHFLIDISETIDDKLDSLRAYESQFQKRPGSVDTPLTNGYIEMIESRERWFGQQIGAAYAEGFLTKTPIHLSNLFEEER	not soluble
MKEEATTLPQQFIKKYRLLLGEEASDFFSALEQGSVKKGFRWNPLKPAGLDMVQTYHSEELQPAPYSNEGFLGTVNGKSFLHQAGYEYSQEPSAMIVGTAAAAKPGEKVLDLCAAPGGKSTQLAAQMKGKGLLVTNEIFPKRAKILSENIERWGVSNAIVTNHAPAELVPHFSGFFDRIVVDAPCSGEGMFRKDPNAIKEWTEESPLYCQKRQQEILSSAIKMLKNKGQLIYSTCTFAPEENEEIISWLVENYPVTIEEIPLTQSVSSGRSEWGSVAGLEKTIRIWPHKDQGEGHFVAKLTFHGQNQMHKEKKTRKKSKVQMTKEQEKLWTEFSNDFHYEATGRLLVFNDHLWEVPELAPSLDGLKVVRTGLHLGDFKKNRFEPSYALALATKKIENIPCLPITQKEWQSYTAGETFQRDGNQGWVLLVLDKIPVGFGKQVKGTVKNFFPKGLRFH	soluble
GEDKKGGTKPSNEAALTKTENLDFRLSFNKIKVTTDQNHFSGGTSIEQLKQWFGDPNKSEQRNAGNITLDSYTWVKDGAVINAQLYKNSTVARSISNFSFSREAKIGKEDYDELKIGESYKKIVEKLGEPDVLSQSMSSDKEEMQTVWSSGIKTKSSSATIELYFENGLLKNKTQKDLE	soluble
ADPVMLEVFNNLFMSIAEQMGYRLQNTAYSVNIKERLDFSCAIFDAAGNLIANAPHMPVHLGSMGESIKTVMRANASRMRPGDAYVVNDPYHGGTHLPDVTVITPVFDRAGRDILFFVGSRGHHADIGGTTPGSMPPDSRTVEDEGVLFTNFQLVGNGEFRDREAREILASGRWPARNPDQNIADLHAQIAANEKGVQELLRMCDHFGLDVVRAYMGHVQDNAEEAVRRVISVLKDGRYTYRLDNGAVIEVAVRVDRQARSAVVDFTGTSGQLENNFNAPGAIAVAAVLYVFRTLVDDEIPLNAGCLKPLEIIIPEGSMLRPNPPASVVAGNVETSMCIVNALYGALGVLAASQGTMNNFTFGNARYQYYETISGGTGAGPLRIDAAGPADAGFAGTSVVQAHMTNSRLTDPEVLELRFPVRLESYEIRHGSGGAGRYRGGDGGVRRVRFLEPMTAAILSNNRRHVPFGLAGGGAGAMGRNYVERADGRVEPLGPQDSAELAAGDVFVVETPGGGDYGPA	not soluble
MLTLKNDYLTVKINPLGAELTSVVDNETQLEYMWQADKAYWGRHAPILFPIVGRLQDNQYRLGERTYHMTQHGFARDREFTVIDQTPTQVTLELTADDQSRALFPADFTLTVTFELIDHQLRFSADVFNPATTTLPFSIGAHPGFNVPLGDALADFTDYQVTVSPKKTYQRVPLVGPYSDSQHTEPLDLTQPLGLDHGLFAHDAQVLTLDSETTVMLSTPTNDHGVALTTTAPYLGIWSPYPKQAPFVCLEPWWGLADDVQATGELTTKVAIHHLAAQQHFQAAYQVTYFLEHHHHHH	not soluble
MINYPNLPNSALEITEQPEVKEITNELLKQLQNALNSNSLFSEQVELSLKGIVRILEVLLSLDFFKNANEIDSSLRNSIEWLNNAGESLKTKMKEYEGFFSDFNTSMRTNEQEVSATLNANTENIKSEIKKLENQLIETTTRLLTSYQIFLNNARDSANNQITANKTESLEALNQAKTSANNEITANQTQALTNINEAKENANNQITENKTQAITNINEAKNQSLSKH	not soluble
MGSDKIHHHHHHMLNVSIVIPAWNEQERINDCLLNATRQTVMPHEVIVVDNRSTDSTVAVVEQFMKDHPEAPVKLLHQDDEQGLIPTRDYGLNHATGDILGRFDADCMIRPDWVEVVSGIFTEDPDAMGATGPVMYYDLPSRHFGLRGDNSTRKRIYRADDGQPLLFGSNMALRATAWREIADEVCQDKADVMHEDIDISLHLLGKDLKTVYCPRMIAGISARRMDTSPASFLNYMRRFKNTFNAHPQHYRKHKPEILITALYPVMHLLYPVWQKVLNTADINPAEAAWINEQMELAEQEGHELYDDTPTDEEWSEKHEE	not soluble
MGSDKIHHHHHHMHYEEGDDLVASSMTYSVKEMSMRNVRPVLLSLGLLSTVGIATAADTTTFNVKIAVTKACTITAASATDVDFGSVLSTSTANADANGSVTAQCTALTPYNIALSAGSNAGTANDVTTRRMKNTDALVTTNNFVAYQLYQDLGRSTVWGSTSGTNTLSRTATGINQIYPVYGRVTNPSAGNPATGTYQDTITATIIY	not soluble
